Data taken from the DeepSol protein solubility set.

Assay: soluble on expression in E. coli; label from the status in PepcDB or PDB records

Sequence	soluble on expression in E. coli
MKATSEELAIFVAVVESGSFSRAAEQLGQANSAVSRAVKKLEMKLGVSLLNRTTRQLSLTEEGERYFRRVQQILQEMAAAETEIMESRNTPRGLLRIDAATPVMLHFLMPLIKPFRERYPEITLSLVSSETFINLIERKVDVAIRAGTLTDSSLRARPLFTSYRKIIASPDYIARFGKPETVEELKRHLCLGFSEPVSLNTWPIACSDGQLHEIKCGISSNSGETLKQLCLNGNGIACLSDYMIDKEIARGELVELLADKRLPVEMPFSAVYYSDRAVSTRIRAFIDFLSEYIRTAPAGAVKEG	not soluble
MKAVVFDFDGTMLDTENLWYTETMKYLKDTYNIDLPDEIYQQIIGTSEEPIISYMMEATNGAFDKEAFLTTVAEACHLGQQSLGFRNGFKEFFEQVKANGYKIGLATSSGFDWIEPTLDRLGILADFETIQTADHVEEIKPHPALYLQAVEALGVKPEEAIAIEDSKNGALSALQAGLKVYIVPNEATKNITFPKEATVVSSFAEIKLK	not soluble
MKAYDIEIVNDAAHAGEANHGWCFGLPPGIRPEQWPLDPDTGYPLMHGFTLLLPEDYRVHGPEIVALSFFSLAPDQNDGGPTSVDGIREMLIDPPAQPPAEAELRPFWEAGRNSHPRLHRMEDILGGAYALILLDAAEFSGAPCQPRALPAGNPLLAQTEPPQWLEAGSAASFVPDWAEDDYYLLRALGGRPAAGHQQRYPLRWTARAQDPNAGVVPSEYGDGGYQLPHYWLDGKIERDNYREHPWVEGHLPNHIGGTMRPVQGVPEMSPFYVEFEEYLGGYNFGGGNAQLDFRDMRFDWACG	not soluble
MKCAICDSVALSLHFGAPSCKACAAFFRRTVALDITYDCITGTLDCEVNFERRMACKRCRYQKCIDNNMQRYLVQSKKGRPDASTANGIENPTTSASPSIPSPFSPPCPSSHNSAPSGLLSPMETDEIQKLNEHFFKMDSNLNKSRRMAFTDSRLLDIFSGVCKMPFEKHQLQPFDFRSYRGYQKQEYVMLFNYANTLPGFQELSNASQNFLFRIACGVDYVISSSYYTLCIGTESNLLINQDGTYIQMMPLPLMGDEPGTELMFTRKEELEKYRNIIKPRVNSWLEFIPLFKSLELSFEENAILKALCCWQTAHFKLEECDKENVRKQKSLLVQCLLKFCIDTYGEEEGPARAGNIILFSSSISVSLMGTSRNVVYGLKLPYISKS	not soluble
MKCPYCGHPDTRVVDSRPSDEGMAIRRRRECPSCGRRFTTYERTQLEPLMVVKRDGRKEPFNPDKLLRGLLLACEKRPVSEEVLRRFAYTFEDQVSGPEITSEEIGLKALAFLKELDHVAYIRFASVYREFDSVERFIEEIRSLASLN	soluble
MKCTECSHEAGVSSFRYLYNARIDAPITLRQCPQCQAWLAVDEMAGEARQRVDAGEAPWGKSAGIEGLAEDAR	not soluble
MKCTKCGKPASVKLRHYNIKLCKEHFNEFIEQRVEKAIKKFKMFGRNSKILIAVSGGKDSVSLWHMLKKLGYEVDALFIRAGKSGMVQKAQEIVEKNAELLNTKLHIVDATEYFGGLSTQEISIMLRRPVCSICGVVRRYLMNKFAYENGYDVVVTGHNLNDEASVLLGNILHWQEGYLERQWPLLPKTHEKLVPKAKPLVLNYEEDIKLYATLNEIPHLEMACPFSVGATSLVYKKILRELEEEQPGITLNFYLGFLKRKKEPKFEVEGLRECKECGYPTTAEVCSFCRLRKQVEKRKNKTPA	soluble
MKDDKTILILTAQFGAGHISAAKAVKECIIEKYSNYNVVIQNFINASIPMMNKPMVKLYENNTKYTPGLYNYYYYFKKSFDSRHDLSHKLYTPKLSEYIADINPDLIISTFPLAAACVNNFKIKNPDINIPTLTVITDVVDSMEWVFENTDLYFVPSPEIKNRFFQKGINPDSIKVTGVPLEHHHHHH	not soluble
MKDFPIRFVLTDEAITPSAGLALVGYLLHQTKLNKRVNALRPPTVRRDVHISHSDVIRSMIGLLATGKTDFDHIEAYRQDDIFSTSMGIQHVPSSPTLRQRLDQLACLPMTETILWEESMRLLIQRHATLSPCWAKGKTTWLPLDIDGSPFDNSDTKKEGVSRTYKGFDGFTPLFAYAGKEGYIVHAELRPGKQHVQDNMPSFLTTAIRRARQLTSSRLLVRMDAGNDAEANVHVCLKEDVDFVIKRNLRRESKALWFQIASQKGKRVDDGQTEGVQTYELCLPQTAAIDGNTYTYVQVTQVTERTMERNGQVMLVPNYEVESYWVRLKGYEHVRMSDVLALYHDHATCEQFHSELKSDLDLERLPSGKMKTNALVLVMGAFVYNLLRLIGQDLLSDPRHPLHHKVKRRRIKTIIQTVITMAGRLVRRSRQLWMKLTRRSGYSILLLNVYQKWKEAR	not soluble
MKDKDLLVLAAKAADDKRAEDMVVLNMQGISPIADYFIICHGNSDKQVQAIAREIKAKAHEFQIDVQRMEGFDEARWVLVDLGDVVAHVFHKDERNHYNLERLWGDVPREDITEELGQLEHHHHHH	not soluble
MKEAGILFEELVSIMEKLRSPEGCEWDRKQTHESLKPYLIEECYELIEAIDEKNDDMMKEELGDVLLQVVFHAQIARERGAFTIEDVIRTLNEKLIRRHPHVFGDSPGYSYKQWEDIKAQEKGKKKSSRIGEINPLVPALSMARRIQENASQVGFDWKDPEGVYEKIEEELKELKEAKDPRELEEEFGDLLFSIVNLSRFLNVDPESALRKATRKFVERFKKMEELIEKDGLVLEELPIEKLDEYWEKAKGGDET	soluble
MKEAMNNHKKLGILLANLGTPQAPTSQAVKAFLSQFLHDQRVVDMSRWLWCPLLHGIILPTRSPKVAKLYQSIWMDEGSPLMVYSRRQRDKLAELSQRPVELGMTYGEPSLLEGVRKLQQQGVEQIVVLPLYPQYSATTTAAVFDGLAKALRQLPVVPELHFIRDYHDHPLYIQALAKSVRASWQQHGQGDLLLCSYHGIPKRYAQNGDIYPEHCLKTTELLAQALGLPQDKVMMTYQSQFGKEEWLQPYTDKTMEALPRQGIKKLDVICPAFSVDCLETLEEIAEQNQEIFLHSGGEAFHYVPCLNDSQSHIELMAALVKVDC	not soluble
MKEEKRSSTGFLVKQRAFLKLYMITMTEQERLYGLKLLEVLRSEFKEIGFKPNHTEVYRSLHELLDDGILKQIKVKKEGAKLQEVVLYQFKDYEAAKLYKKQLKVELDRSKKLIEKALSDNF	soluble
MKEIKIGLIGFGTIGTGVAKLLQANAGLIADKVGAMVTLKKIADLDVTTDRGIELPPGTLTSNVADVLDDPEISVVIELIGGYEPAKSFVLRAINNGKHVVTANKALLALHGEEIYPAAAAKGVQVLFEAAVGGGIPVISAILGNMAANNFTTVLGILNGTCNYILTRMTQEGADFGDVLKTAQELGYAEADPTFDIEGVDTAHKLALLVSLCFGTKVDFNAIHTEGISSISSADIGFARDFGYKIKLLAIGKRTGDTVEARVHPTMIPVNYPLADVDGVFNAIRFTGDFIGPVMFYGRGAGMDPTASAVVGDVIEIARNIIAGVSRRCAPLGYRDEAVTTLALKPMGEIEGKYYLRFSAVDKPGVLAKISGALGKYDISIESMIQKGRSAGESVPIVIMTHEAREKDIRAALEEIDTFELISEKSRFIRIEDNLE	not soluble
MKEKEKIYRHLTEEEISVLEGNYCQCADWTMVEVADGFDANRCLHVMFSGQIRIGSTRGSHLLPGGLHVPTGINIARLHNCIVGDEVVIFHVNSYLANYRIGDYTRIENIDTIAVTESTSFGNGVEVTVLNETGGREVTITDNLTAQTAYLMAMYRHDKVLTESLAAMARAYAESRRSDMGAIGSHVVIHGCNTIENVCIGDYTEITGASHLCNGSINSKKEAPVSVGYNVVCRDFILCSGSSVTDGATVSHCFVGQGTHLGHLFSAHDSLFFANCQGENGEACAVFAGPYTVSMHK	not soluble
MKEKEYLFSLDMKVRDYECDLQGVVNNSNYQRYMEHTRHEFWESLGDNFGQMHEKGLDAFVYKVTITFKQSLRSGDRFRSCLTCHKKGPKLIFMQDIIREDGVMAARGEVEVVAVQDGVLTRGEYFDVLMKDILSKTTKLEHHHHHH	soluble
